Among the data in patent US20240209076A1 (KODIAK SCIENCES, published 2024) are Kd, koff and kon values, retold here.

Numbering of substitutions follows the chain as printed. In names and notes the source's numbering stands.

B1: anti-IL-6 antibody, heavy chain I51Y, G66D / light chain M32L, M50D, N52S, M88Q (antibody, IgG1, V domains shown)
VH: EVQLVESGGGLVQPGGSLRLSCAASGFTFSPFAMSWVRQAPGKGLEWVAKYSPGGSWTYYSDTVTDRFTFSLDTSKSTAYLQMNSLRAEDTAVYYCARQLWGYYALDIWGQGTLVTVSS
VL: DIQLTQSPSSLSASVGDRVTITCSASISVSYLYWYQQKPGKAPKLLIYDDSSLASGVPSRFSGSGSGTDFTLTISSLQPEDFATYYCQQWSGYPYTFGQGTKVEIK
notes: Full IgG1 (Expi293); VL = variant III
B2: anti-IL-6 antibody, heavy chain S35K, G66D / light chain M32L, M50D, N52S, M88Q (antibody, IgG1, V domains shown)
VH: B1 VH with S35K, Y51I
VL: B1 VL
notes: as for B1
B3: anti-IL-6 antibody, heavy chain S35L, G66D / light chain M32L, M50D, N52S, M88Q (antibody, IgG1, V domains shown)
VH: B1 VH with S35L, Y51I
VL: B1 VL
notes: as for B1
B4: anti-IL-6 antibody, heavy chain S35T, G66D / light chain M32L, M50D, N52S, M88Q (antibody, IgG1, V domains shown)
VH: B1 VH with S35T, Y51I
VL: B1 VL
notes: as for B1
B5: anti-IL-6 antibody, heavy chain S35W, G66D / light chain M32L, M50D, N52S, M88Q (antibody, IgG1, V domains shown)
VH: B1 VH with S35W, Y51I
VL: B1 VL
notes: as for B1
B6: anti-IL-6 antibody, heavy chain T63L, G66D / light chain M32L, M50D, N52S, M88Q (antibody, IgG1, V domains shown)
VH: B1 VH with Y51I, T63L
VL: B1 VL
notes: as for B1
B7: anti-IL-6 antibody, heavy chain T63S, G66D / light chain M32L, M50D, N52S, M88Q (antibody, IgG1, V domains shown)
VH: B1 VH with Y51I, T63S
VL: B1 VL
notes: as for B1
B8: anti-IL-6 antibody, heavy chain S35A, G66D / light chain M32L, M50D, N52S, M88Q (antibody, IgG1, V domains shown)
VH: B1 VH with S35A, Y51I
VL: B1 VL
notes: as for B1
B9: anti-IL-6 antibody, heavy chain S35P, G66D / light chain M32L, M50D, N52S, M88Q (antibody, IgG1, V domains shown)
VH: B1 VH with S35P, Y51I
VL: B1 VL
notes: as for B1
B10: anti-IL-6 antibody, heavy chain T63A, G66D / light chain M32L, M50D, N52S, M88Q (antibody, IgG1, V domains shown)
VH: B1 VH with Y51I, T63A
VL: B1 VL
notes: as for B1
B11: anti-IL-6 antibody, heavy chain T65D, G66D / light chain M32L, M50D, N52S, M88Q (antibody, IgG1, V domains shown)
VH: B1 VH with Y51I, T65D
VL: B1 VL
notes: as for B1
B12: anti-IL-6 antibody, heavy chain S35F, G66D / light chain M32L, M50D, N52S, M88Q (antibody, IgG1, V domains shown)
VH: B1 VH with S35F, Y51I
VL: B1 VL
notes: as for B1
B13: anti-IL-6 antibody, heavy chain T63R, G66D / light chain M32L, M50D, N52S, M88Q (antibody, IgG1, V domains shown)
VH: B1 VH with Y51I, T63R
VL: B1 VL
notes: as for B1
B14: anti-IL-6 antibody, heavy chain T63I, G66D / light chain M32L, M50D, N52S, M88Q (antibody, IgG1, V domains shown)
VH: B1 VH with Y51I, T63I
VL: B1 VL
notes: as for B1
B15: anti-IL-6 antibody, heavy chain S35I, G66D / light chain M32L, M50D, N52S, M88Q (antibody, IgG1, V domains shown)
VH: B1 VH with S35I, Y51I
VL: B1 VL
notes: as for B1
B16: anti-IL-6 antibody, heavy chain S35G, G66D / light chain M32L, M50D, N52S, M88Q (antibody, IgG1, V domains shown)
VH: B1 VH with S35G, Y51I
VL: B1 VL
notes: as for B1
B17: anti-IL-6 antibody, heavy chain T63Y, G66D / light chain M32L, M50D, N52S, M88Q (antibody, IgG1, V domains shown)
VH: B1 VH with Y51I, T63Y
VL: B1 VL
notes: as for B1
B18: anti-IL-6 antibody, heavy chain T65F, G66D / light chain M32L, M50D, N52S, M88Q (antibody, IgG1, V domains shown)
VH: B1 VH with Y51I, T65F
VL: B1 VL
notes: as for B1
B19: anti-IL-6 antibody, heavy chain T63V, G66D / light chain M32L, M50D, N52S, M88Q (antibody, IgG1, V domains shown)
VH: B1 VH with Y51I, T63V
VL: B1 VL
notes: as for B1
B20: anti-IL-6 antibody, heavy chain S35E, G66D / light chain M32L, M50D, N52S, M88Q (antibody, IgG1, V domains shown)
VH: B1 VH with S35E, Y51I
VL: B1 VL
notes: as for B1
B21: anti-IL-6 antibody, heavy chain T63D, G66D / light chain M32L, M50D, N52S, M88Q (antibody, IgG1, V domains shown)
VH: B1 VH with Y51I, T63D
VL: B1 VL
notes: as for B1
B22: anti-IL-6 antibody, heavy chain T63P, G66D / light chain M32L, M50D, N52S, M88Q (antibody, IgG1, V domains shown)
VH: B1 VH with Y51I, T63P
VL: B1 VL
notes: as for B1
B23: anti-IL-6 antibody, heavy chain T63H, G66D / light chain M32L, M50D, N52S, M88Q (antibody, IgG1, V domains shown)
VH: B1 VH with Y51I, T63H
VL: B1 VL
notes: as for B1
B24: anti-IL-6 antibody, heavy chain T63W, G66D / light chain M32L, M50D, N52S, M88Q (antibody, IgG1, V domains shown)
VH: B1 VH with Y51I, T63W
VL: B1 VL
notes: as for B1
B25: anti-IL-6 antibody, heavy chain S35D, G66D / light chain M32L, M50D, N52S, M88Q (antibody, IgG1, V domains shown)
VH: B1 VH with S35D, Y51I
VL: B1 VL
notes: as for B1
B26: anti-IL-6 antibody, heavy chain T63G, G66D / light chain M32L, M50D, N52S, M88Q (antibody, IgG1, V domains shown)
VH: B1 VH with Y51I, T63G
VL: B1 VL
notes: as for B1
B27: anti-IL-6 antibody, heavy chain S35Y, G66D / light chain M32L, M50D, N52S, M88Q (antibody, IgG1, V domains shown)
VH: B1 VH with S35Y, Y51I
VL: B1 VL
notes: as for B1
B28: anti-IL-6 antibody, heavy chain T63F, G66D / light chain M32L, M50D, N52S, M88Q (antibody, IgG1, V domains shown)
VH: B1 VH with Y51I, T63F
VL: B1 VL
notes: as for B1
B29: anti-IL-6 antibody, heavy chain S35Q, G66D / light chain M32L, M50D, N52S, M88Q (antibody, IgG1, V domains shown)
VH: B1 VH with S35Q, Y51I
VL: B1 VL
notes: as for B1
B30: anti-IL-6 antibody, heavy chain T65E, G66D / light chain M32L, M50D, N52S, M88Q (antibody, IgG1, V domains shown)
VH: B1 VH with Y51I, T65E
VL: B1 VL
notes: as for B1
B31: anti-IL-6 antibody, heavy chain T65A, G66D / light chain M32L, M50D, N52S, M88Q (antibody, IgG1, V domains shown)
VH: B1 VH with Y51I, T65A
VL: B1 VL
notes: as for B1
B32: anti-IL-6 antibody, heavy chain S35V, G66D / light chain M32L, M50D, N52S, M88Q (antibody, IgG1, V domains shown)
VH: B1 VH with S35V, Y51I
VL: B1 VL
notes: as for B1

The target of this assay is T1, human IL-6 (human, UniProt P05231 30-212).
T1 construct: IL-6 flowed over captured antibodies
T1 sequence (P05231 30-212 limits assumed): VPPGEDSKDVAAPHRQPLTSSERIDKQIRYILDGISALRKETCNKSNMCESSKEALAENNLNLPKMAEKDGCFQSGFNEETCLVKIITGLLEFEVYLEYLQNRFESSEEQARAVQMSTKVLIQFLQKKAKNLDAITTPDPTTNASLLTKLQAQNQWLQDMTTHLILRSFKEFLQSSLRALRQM
Description: SPR Biacore, supernatant Ab on Protein A chip, 37 C. On the procedure:
Antibodies were captured on a Protein A chip (GE) by injecting 1:20 cell supernatant dilutions at 10 μL/min for 60 seconds. […] The sensor chip was regenerated by a 60 seconds injection of 10 mM Glycine pH 1.7 at the flow rate of 50 μL/min. […] For this setup, 1 μg/mL of purified antibody was injected over a Protein A chip at 10 μL/min for 25 seconds. […] The sensor chip was regenerated by a 60 seconds injection of 10 mM Glycine pH 1.7 at flow rate of 50 μL/min. Data analysis for supernatant and purified samples were performed using BIAevaluation software (GE). All sensorgrams were double reference subtracted and fit using a 1:1 Langmuir binding model.
For orientation: In SPR one partner is held on a chip, and binding of the other changes the refractive index at the surface.
The term Kd denotes the constant that tells how readily two partners part at equilibrium. Low readings indicate tighter binding, high ones weaker binding. Usually koff stands for the rate constant with which the complex falls apart. Low readings indicate slow dissociation, high ones fast dissociation. As usually defined, the kon is the rate constant with which the complex forms. As to B1, the Kd was determined as 4.04 nM, the koff was found to be 0.0247 s⁻¹ and the kon turned out to be 6.1e+06 M⁻¹ s⁻¹.

Turning to B2, binding was put at a Kd of 2.64 nM, the off-rate constant (koff) came out at 0.00346 s⁻¹ and the association rate constant (kon) was 1.31e+06 M⁻¹ s⁻¹.

The molecule B3 gave a Kd of 2.59 nM, an off-rate constant (koff) of 0.00243 s⁻¹ and a kon of 942000 M⁻¹ s⁻¹.

Molecule B4 displayed a Kd of 0.498 nM, a koff of 0.000711 s⁻¹ and a kon of 1.43e+06 M⁻¹ s⁻¹.

On to B5, for which the affinity, expressed as Kd, was 34.6 nM; the koff came to 0.00591 s⁻¹; the kon was 171000 M⁻¹ s⁻¹.

Take B6: the Kd worked out at 0.283 nM, the koff amounted to 0.000454 s⁻¹ and the kon amounted to 1.6e+06 M⁻¹ s⁻¹.

B7 had a Kd of 0.278 nM, an off-rate constant (koff) of 0.000499 s⁻¹ and a kon of 1.8e+06 M⁻¹ s⁻¹.

On to B8, for which the Kd came to 0.657 nM, the koff amounted to 0.00126 s⁻¹ and the kon was determined as 1.93e+06 M⁻¹ s⁻¹.

Molecule B9 came in with a Kd of 27.1 nM, a koff of 0.00548 s⁻¹ and an association rate constant (kon) of 202000 M⁻¹ s⁻¹.

Consider B10, for which the dissociation constant (Kd) was 0.268 nM, the koff was determined as 0.000458 s⁻¹ and the kon stood at 1.7e+06 M⁻¹ s⁻¹.

With B11, the Kd is 0.465 nM, the koff is 0.00048 s⁻¹ and the on-rate (kon) amounted to 1.03e+06 M⁻¹ s⁻¹.

In turn, B12 had a Kd of 3.17 nM, an off-rate (koff) of 0.00484 s⁻¹ and a kon of 1.53e+06 M⁻¹ s⁻¹.

For the molecule B13, the Kd amounted to 0.273 nM, the koff stood at 0.000526 s⁻¹ and the kon was determined as 1.92e+06 M⁻¹ s⁻¹.

The molecule B14 had a dissociation constant (Kd) of 0.288 nM, a koff of 0.000446 s⁻¹ and a kon of 1.55e+06 M⁻¹ s⁻¹.

B15 registered a Kd of 1.62 nM, a koff of 0.00147 s⁻¹ and a kon of 904000 M⁻¹ s⁻¹.

In turn, B16 returned a Kd of 0.609 nM, a dissociation rate constant (koff) of 0.000781 s⁻¹ and a kon of 1.28e+06 M⁻¹ s⁻¹.

The molecule B17 gave a Kd of 0.241 nM, an off-rate (koff) of 0.000459 s⁻¹ and an on-rate (kon) of 1.91e+06 M⁻¹ s⁻¹.

In turn, B18 yielded a Kd of 0.291 nM, an off-rate (koff) of 0.000391 s⁻¹ and a kon of 1.34e+06 M⁻¹ s⁻¹.

B19 registered a Kd of 0.274 nM, an off-rate constant (koff) of 0.00043 s⁻¹ and a kon of 1.57e+06 M⁻¹ s⁻¹.

As to B20, the Kd was determined as 0.867 nM, the koff is 0.00189 s⁻¹ and the association rate constant (kon) was determined as 2.18e+06 M⁻¹ s⁻¹.

With B21, binding was characterised by a dissociation constant (Kd) of 0.249 nM, the dissociation rate constant (koff) worked out at 0.000413 s⁻¹ and the kon stood at 1.66e+06 M⁻¹ s⁻¹.

As to B22, the affinity, expressed as Kd, was 0.246 nM; the koff was determined as 0.000419 s⁻¹; the kon was 1.7e+06 M⁻¹ s⁻¹.

B23 registered a dissociation constant (Kd) of 0.28 nM, a koff of 0.000481 s⁻¹ and an association rate constant (kon) of 1.72e+06 M⁻¹ s⁻¹.

B24: binding was characterised by a dissociation constant (Kd) of 0.286 nM, the koff was found to be 0.000449 s⁻¹ and the kon was 1.57e+06 M⁻¹ s⁻¹.

In turn, B25 returned a Kd of 0.753 nM, a koff of 0.00177 s⁻¹ and an on-rate (kon) of 2.35e+06 M⁻¹ s⁻¹.

In turn, B26 yielded a Kd of 0.261 nM, an off-rate (koff) of 0.00045 s⁻¹ and a kon of 1.73e+06 M⁻¹ s⁻¹.

B27 showed a dissociation constant Kd of 3.43 nM, a koff of 0.00404 s⁻¹ and a kon of 1.18e+06 M⁻¹ s⁻¹.

In turn, B28 displayed a Kd of 0.274 nM, an off-rate (koff) of 0.000459 s⁻¹ and an on-rate constant (kon) of 1.67e+06 M⁻¹ s⁻¹.

On to B29, for which the Kd was 0.3 nM, the koff was 0.000626 s⁻¹ and the on-rate (kon) stood at 2.09e+06 M⁻¹ s⁻¹.

Consider B30, for which the dissociation constant Kd amounted to 0.279 nM, the off-rate constant (koff) was 0.000474 s⁻¹ and the on-rate constant (kon) was 1.7e+06 M⁻¹ s⁻¹.

Molecule B31 yielded a Kd of 0.239 nM, a dissociation rate constant (koff) of 0.000542 s⁻¹ and an association rate constant (kon) of 2.27e+06 M⁻¹ s⁻¹.

Turning to B32, binding was characterised by a dissociation constant (Kd) of 1.33 nM, the dissociation rate constant (koff) is 0.00137 s⁻¹ and the kon was 1.03e+06 M⁻¹ s⁻¹.
